Experimental findings from article doi:10.1101/2023.03.19.533240 are described below.

This data set deals with MBP-DDX3X WT (UniProt O00571 1-662). Nature of the data set: time-resolved fluorescence anisotropy. A general note: Polarisation of emitted light reports the rotation of a fluorescent probe.
MBP-DDX3X WT, sequence (O00571 whole entry): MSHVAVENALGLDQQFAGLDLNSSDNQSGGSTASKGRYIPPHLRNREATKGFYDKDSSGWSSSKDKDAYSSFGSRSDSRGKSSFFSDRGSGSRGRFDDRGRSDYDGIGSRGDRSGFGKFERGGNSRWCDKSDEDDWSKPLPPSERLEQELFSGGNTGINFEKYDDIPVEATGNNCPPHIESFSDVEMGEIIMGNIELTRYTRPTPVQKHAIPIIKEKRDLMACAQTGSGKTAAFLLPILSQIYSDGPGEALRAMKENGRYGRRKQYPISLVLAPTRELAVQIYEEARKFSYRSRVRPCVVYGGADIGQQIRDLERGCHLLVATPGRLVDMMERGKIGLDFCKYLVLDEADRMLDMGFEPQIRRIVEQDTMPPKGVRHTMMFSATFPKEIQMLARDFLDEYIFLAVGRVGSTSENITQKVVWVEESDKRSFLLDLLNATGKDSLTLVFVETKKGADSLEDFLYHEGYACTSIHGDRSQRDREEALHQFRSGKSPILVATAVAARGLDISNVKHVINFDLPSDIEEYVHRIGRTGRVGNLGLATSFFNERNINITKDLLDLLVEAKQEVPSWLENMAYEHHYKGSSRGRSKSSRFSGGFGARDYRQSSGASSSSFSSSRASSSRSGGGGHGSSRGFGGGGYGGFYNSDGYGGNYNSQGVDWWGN

Turning to UUUUUUUUUUUUUUUUUUUUUUUUCGGAGCGACGGCAGCGGU (ssRNA) [long strand 42-mer ssRNA], the binding result is given as “binds”.
